Earlier results on one substance are cited in patent US20160258855A1, “Methods and Apparatus to Determine Diffusion Properties of Porous Structures for Drug Delivery” (ForSight Vision4, Inc., priority 2010, published 2016).

The conditions of data set [1]: human eye, intravitreal, cited from earlier work.
For data set [2] the following is noted: monkey eye, intravitreal, cited from earlier work.
For data set [3] the following is noted: rabbit eye, intravitreal, cited from earlier work.

Like-named read-outs stand apart in the source and are kept apart here.

For the substance ranibizumab [Lucentis], the half-life in vitreous result was “about nine” in data set [1]; about 220 h in data set [1] (listed as ranibizumab); “two to four” in data set [2]; “approximately 3 days” in data set [2] (listed as ranibizumab); “two to four” in data set [3]; “approximately 3 days” in data set [3] (listed as ranibizumab).
